Results published in the DeepSol protein solubility set.

Experiment: soluble on expression in E. coli; label from the status in PepcDB or PDB records

Sequence	soluble on expression in E. coli
GPGSMLRRCAPLLIGVEGDTFVSAIKDKQYLAHRLAILGKEDPNFKAQCMSDDDIKRFTTSLGSAESLFNKQAGAIPTNVVDEETGRVIGSTQPDPTRYGDWEVNGRCYDF	soluble
MSLSTIAIFGSYVLSRKDGAQDVLRDHWVLVEGKKIAAVTRDRPRADEVYDRPGRFVLPGLLNLHNHCFSEAVARSHSEDGTGRKNNQSIVYTVLLPLTKRGADILSAEERMAVARLGILQLLKGGATTVMEPFRNSIPEMFDAAEEMGIRFYGAPYLFSTSDAKAGPDGVVQYSGDDGTADMATWDALYQRWNNRGDGRISLAMSPHATDTCGPDLLKACAARARELGVPITTHMAQSRAEVETIGKRYGGRTPAQYLDWLGLLAPDLMAAHCMFSTDDDLKLMAARGMTVLNCPRVFARAGVTAAFSRFAEHGVRTVVGTDGYNMDLLGELNAASLISKITSQRADVANSPELIEANTAVAADVIKRPDLGRIEPGATADLTVVDLTHPHLQPLFDPRRALIALANRANIDQVMVDGRVLVDGGRYLGADEAAITAAGSAAIGKIWDLPEAQAAFNGEGHHHHHH	soluble
AVPSPPPASPRSQYNFIADVVEKTAPAVVYIEILDRHPFLGREVPISNGSGFVVAADGLIVTNAHVVADRRRVRVRLLSGDTYEAVVTAVDPVADIATLRIQTKEPLPTLPLGRSADVRQGEFVVAMGSPFALQNTITSGIVSSAQRPARDLGLPQTNVEYIQTDAAIDFGNAGGPLVNLDGEVIGVNTMKVTAGISFAIPSDRLREFLHRGEKKNSSSGISGSQRRYIGVMMLTLSPSILAELQLREPSFPDVQHGVLIHKVILGSPAHRAGLRPGDVILAIGEQMVQNAEDVYEAVRTQSQLAVQIRRGRETLTLYVTPEVTE	soluble
MLSRTLRPISKVLRSSAKYSQAAGLPLNEGSPAPLPSEDRAISAKVSSLVEEIANLSLLDVSDLNWALKKRLNIPDQPLMAAAAAAPAAQAEAEAASDVPQKMTFTVKLTKFDDTKKIAIIKEIRNAIPGLNLVQAKKFVETAPVNVKEDLGKAEADELKAILEKAGATIEIV	not soluble
MFEARLTDVRANKLAQAWRLAYEQADGKRRRAMLGGLAQVGAGMQGDGAQGTRLFKRFNALPDGLRFLVALRADMLRWRKQVAGLQALDKELEALLSAWFDVGLLELRPLTWDSPASLLEKLILYEAVHEIRSWDDLRHRVAGDRRCYAYFHPQMPDVPLIFVEVAFSAQMADNVQALLDTSAPPQDLDKARWAIFYSISNTQPGLRGISFGNFLLKRVIDRLLQELPKLKFFATLSPIPGFADWLSRLDAQEVEQAVRDKARTRSGAPDGARWVARLARAATGKPSEVVQRAGLRLAARYLQAMRAGQPLDPVARFHLGNGARIERLNWAADTSAKGLAQSCGMMVNYLYELGDLDGNLARLNEGKPQVSRGIARLGAAALEHHHHHH	soluble
MTTSSHGLEKAMELAKFSKSQKERAREILEAGLLEATYGHLAPSSNFVGGMCVGNVSPGGEPVNLNAKVTGYLPKIKEMAEKHGVAQYVGILAAQMMQESQGEGNDPMQAAEGHYGDLSSSCIGLKGSARIGCIKDPNISIEAGVQEFKDVLAKANGDIALALQSYNYGPGFISYALAKGGYSEETAIAFSREHAGENPAGCSDPNNFRTKVGACYGDFTYVSKILKYYKDLGCVTAGDGEWISDKGWKWPTKSGRITDTFDAVRNGKQHNAVDIGAMTAGKPGDPVWSMEAGVVTAQTGYVNYGGLGVYIDHGNGIVSRYLHLSKISVTPGTMVTKGQIIGEMGGSNYVGGVLNMLGYAVHLDFQIRINDQPTDPMKFFKKNDDPGLSSGGSPTMTNAKRQKVLEEAKKWLGQGKVRYVLGDRNPPGGTSDCSGFTQYVFRTSIGVQLGDWTGAQVGQGKQVPDINHAQPGDLIFYENPGHVAIYMGNQKMIHIGDNKGVQITGLNYTARGQHMTQIRNVID	not soluble
MTGERIEKVKINDEFAKSHFLTTQWRETKRQRHYKMPVTEQGLRERIESAIPQVYHIIVTDLSYGCGQSFDIVVVSDFFQGKSKLMRSRAVNKAVKEELQEIHAFSCKCYTEEEWSKIVV	soluble
MDSFLMKGYIKEANIDYSCSRGSMEDLPKWEFREIPKVPRAVMPSLSLEERKNNFNEVELGLSEEVARKEARRCLKCGCSARFTCDLRKEASNHGIVYEEPIHDRPYIPKVDDHPFIVRDHNKCISCGRCIAACAEIEGPGVLTFYMKNGRQLVGTKSGLPLRDTDCVSCGQCVTACPCAALDYRRERGKVVRAINDPKKTVVGFVAPAVRSLISNTFGVSYEEASPFMAGLLKKLGFDKVFDFTFAADLTIVEETTEFLSRIQNKGVMPQFTSCCPGWINFVEKRYPEIIPHLSTCKSPQMMMGATVKNHYAKLMGINKEDLFVVSIVPCLAKKYEAARPEFIHDGIRDVDAVLTTTEMLEMMELADIKPSEVVPQEFDEPYKQVSGAGILFGASGGVAEAALRMAVEKLTGKVLTDHLEFEEIRGFEGVKESTIDVNGTKVRVAVVSGLKNAEPIIEKILNGVDVGYDLIEVMACPGGCICGAGHPVPEKIDSLEKRQQVLVNIDKVSKYRKSQENPDILRLYNEFYGEPNSPLAHELLHTHYTPKHGDSTCSPERKKGTAAFDVQEFTICMCESCMEKGAENLYNDLSSKIRLFKMDPFVQIKRIRLKETHPGKGVYIALNGKQIEEPMLSGNIPDESESE	soluble
MDIWYGTAAVPKDLDNSAVTIGVFDGVHRGHQKLINATVEKAREVGAKAIMVTFDPHPVSVFLPRRAPLGITTLAERFALAESFGIDGVLVIDFTRELSGTSPEKYVEFLLEDTLHASHVVVGANFTFGENAAGTADSLRQICQSRLTVDVIDLLDDEGVRISSTTVREFLSEGDVARANWALGRHFYVTGPVVRGAGRGGKELGFPTANQYFHDTVALPADGVYAGWLTILPTEAPVSGNMEPEVAYAAAISVGTNPTFGDEQRSVESFVLDRDADLYGHDVKVEFVDHVRAMEKFDSVEQLLEVMAKDVQKTRTLLAQDVQAHKMAPETYFLQAES	soluble
MLDVQHSKFGFTKGCIIAVFLLSLSRTLNRGQLSLDRFKFWQPTSQLLALDMCLCDASALEHHHHHH	not soluble
GMGVNMRAETESRIFSVDEYVRPSNGEPIRSVVLETNDSVVVVWHAHPGQEIASHVHPHGQDTWTVISGEAEYHQGNGIVTHLKAGDIAIAKPGQVHGAMNSGPEPFIFVSVVAPGNAGFALAEK	soluble
EEALIKIKQQEIVKNLPANAALVQLKYAGKTTDEPILNNLYKKYQVTANILYGNIEILEKTPVGEMIVILEGAATNIDQALNDLTHSDLTVTVLKRGV	not soluble
MANQVNGNAVQLKEEEEPMDTSSVTHTEHYKTLIEAGLPQKVAERLDEIFQTGLVAYVDLDERAIDALREFNEEGALSVLQQFKESDLSHVQNKSAFLCGVMKTYRQREKQGSKVQESTKGPDEAKIKALLERTGYTLDVTTGQRKYGGPPPDSVYSGVQPGIGTEVFVGKIPRDLYEDELVPLFEKAGPIWDLRLMMDPLSGQNRGYAFITFCGKEAAQEAVKLCDSYEIRPGKHLGVCISVANNRLFVGSIPKNKTKENILEEFSKVTGLTEGLVDVILYHQPDDKKKNRGFCFLEYEDHKSAAQARRRLMSGKVKVWGNVVTVEWADPVEEPDPEVMAKVKVLFVRNLATTVTEEILEKSFSEFGKLERVKKLKDYAFVHFEDRGAAVKAMDEMNGKEIEGEEIEIVLAKPPDKKRKERQAARQASRSTAYEDYYYHPPPRMPPPIRGRGRGGGRGGYGYPPDYYGYEDYYDDYYGYDYHDYRGGYEDPYYGYDDGYAVRGRGGGRGGRGAPPPPRGRGAPPPRGRAGYSQRGAPLGPPRGSRGGRGGPAQQQRGRGSRGSRGNRGGNVGGKRKADGYNQPDSKRRQTNNQQNWGSQPIAQQPLQQGGDYSGNYGYNNDNQEFYQDTYGQQWK	soluble
MGSDKIHHHHHHMANLLTINHLSYSRNLQLILKDLNLELPYGQIVGLLGTNGAGKTTLMRLIAGNYIDRKNSISINTETNSAVRKSLVSFTEQVGGWSGHPRIFKIGNFYDALYEDFNLTTFNQLLSNLNLSPDQRVNQLSKGNFRKLVIAVTLARQTDLYLLDEPFDGIDSMTRKKIISSIIQWKPENATVLVSDHHVGDIANLLDQVVIIKDQHVAAQEAADTIRETLGKDIETYYEDFYREEL	not soluble
MTYLEIEGTNHLSGNVTISGAKNAALPLIVSSILAKNEVKINNVPNVADIKTLISLLENLGAKVNFQNNSALLNTNTLNQTIAKYDIVRKMRASILTLGPLLARFGHCEVSLPGGCAIGQRPIDLHLLALEKMGANIQIKQGYVVASGNLKGNEILFDKITVTGSENIIMAAALAKGKTKLLNVAKEPEVVQLCEVLKDAGLEIKGIGTDELEIYGSDGELLEFKEFSVIPDRIEAGTYLCAGAITNSKITLDKVNATHLSAVLAKLHQMGFETLITEDSITLLPAKEIKPVEIMTSEYPGFPTDMQAQFMALALKANGTSIIDERLFENRFMHVSELLRMGADIKLNGHIATIVGGKELNAADVMATDLRASSALILAALAAKGTSKVHRIYHLDRGYENLEEKFKDLGAKITRLEE	not soluble
MIPISVLVTNAGTVSFHIKGEYNRDRPSKFSDVFRPVVTWNLTRKCNLKCLHCYINASPEGEDGLTTEEALGLIDEMAEMKIPLIIMSGGEPLMRRDFFELASYARSKGIKLALSTNGTLISESVAKRLKELDFSYVGISLDSYDPEFHDKFRGLNGAFNMTVKGIGNAINVGLNVGLRFTITAKNIHQVDEYMKLALKLGVKRITFYHLSASGRGRELREWMYTLEEYVSFINKMIDYAIKLSGKIEIETTLGQFDGVYIAKKLARNEEELEKYLKFVENSGGCGRKMISIYPNGDVYPCQFIDFYKLGNVREKPLKEIIKNIPDLFINTDKYLKGRYCDKCEYKSACKGGDRARAYYWNEDIYGDDPLCPLKTLHI	not soluble
MGSDKIHHHHHHMKYTVIICDDNLNHASNLALKIGIAAMVDSGDNPDTEIDLEIGKIAQNALDVIEYLKENPISGGIYFLDIELSQEKNAMNGIDLAEQVKQLDPRAQIIFVTAYNEYMEMTFERRIGAVDYINKSNPNLQNRLNETLQDTVRRISKENYSKKMTFSYRLGRIIKNINIDDIYYISTTKAPHKLKLVKNDGTAEFAGDIKSVDKQNEFLTKVSQSYLVNPKNIVQINLKKKEITLSNGDAIKFSRRFTHVMKDMINTYNLKQNNYQI	not soluble
MSEEIKKIEEVAEQDKAPKVPTTEPPVDVPAPVTEEAPKVEEAVAEIAAPAAAEGETATAAAAAPEEKKKSGGVARRFTFNKRWGKHRDAEASTPKEPEAPKDPKEDVLGWIAQQIPQAVHKANYQVIDWVQKTAIPEEGERKTIPGKDQATTRNQFIGFFKDGDVLAKLANALEPGAVEVAAAEENADAAAQKEVQKKNIDAFGAWAQKTLGTEAAPVTNEDLLEKGKAGYTAVFQTLWQLGVQAKEKFDKEGFNVDTIVQLANSVVKSGLLTTILGFFRRNRQAAAAVEEPKDETAAAEGAGEAKEEGATGEVADTADEPVAVKQETSAPAAVAAN	not soluble
MAGDPMSLKSYSTPTYWQRVKVACQYLFPQLPITRLAGWLAEQKWGMVTHFIIRIFAKQYNVNLAEAEKTNPADYTTFNEFFLRPLKENARPINQDDQAVCLPADGKISELGQINENRLLQAKGHYFTLETLLANDEEMAESFKNGSFITTYLSPRDYHRVHMPCDATLKKMIYVPGDLFSVNSFLAEHIPNLFARNERVICEFETAFGPMVQILVGATITASISTVWAGIINPPRSKDVVEYNYQTTGETAIHLKKGDEMGAFRLGSTVINLFPQATVELVSHLQAGVETRMGERFAKIIKLEHHHHHH	soluble
